By Kd is commonly meant the equilibrium constant for the complex coming apart. Read a low Kd as higher affinity.

Consider two molecules from patent publication US20190046655A1 (ARBELE, published 2019).

Residue numbers refer to the chain shown, from its start.

The target in the assay is T1, cadherin-17 (CDH17), ELISA antigen (UniProt Q12864 23-787, limits assumed).
T1 construct: also called liver-intestine cadherin
The assay can be described thus: ELISA. (In an ELISA, binding on a coated surface is turned into a signal by an enzyme label.)

B1: Lic3 scFv (scFv, V domains shown)
VH: EVQLVESGGGLVKPGGSLKLSCAASGFSFSDYYMYWVRQAPEKRLEWVASISFDGTYTYYTDRVKGRFTISRDNAKNNLYLQMSSLKSEDTAMYYCARDRPAWFPYWGQGTLVTVSA
VL: DVLMTQIPLSLTVSLGDQASISCRSSQSIVHSNGNTYLEWYLQRPGQSPKLLIYKVSNRFSGVPDRFSGSGSGTDFTLKISRVEAEDLGVYYCFQGSHVPLTFGAGTKLELK
notes: Tested as a single-chain Fv; also called scFv lic 3; mouse CDH17 antibody Lic3 scFv
B1 came in with a Kd of 11.9 nM.

B2: Lic5 scFv (scFv, V domains shown)
VH: B1 VH with V5E, S21P, F27S, Y32F, A40T
VL: DIVLTQTTLSLNVSLGDQASISCRSSQSIVHSNGNTYLEWYLQRPGQSPKLLIYKVSNRFSGVPDRFSGSGSGTDFTLKISRVEAEDLGVYYCFQGSHVPLTFGAGTKLELKR
notes: Tested as a single-chain Fv; also called scFv lic5; mouse CDH17 antibody Lic5 scFv
The molecule B2 showed a dissociation constant (Kd) of 22.1 nM. Compared with the last molecule, the Kd is about 1.9-fold higher.
